Measured values taken from US20260274981A1 (VIB VZW, published 2026).
Changes are numbered by the printed parent chain. Names may count otherwise. Blank lines part the entries; values can stand above or below the binder they belong to.

Columns and labels:
[1] = biological target: T1, cynomolgus TfR overexpressed on CHO cells (cynomolgus monkey, UniProt Q5RDH6 1-760 (Pongo abelii entry)); test: flow cytometry, first of two columns 'Binding to cyno TfR1 EC50 (M)' (second column: ND); paragraph 156 calls it the capacity to compete for binding on cynomolgus monkey TfR1, competitor not named
T1 construct: construct is TfR followed by an HA tag and IRES-GFP; also called cynomolgus monkey TfR1; NHP TfR
T1 chain: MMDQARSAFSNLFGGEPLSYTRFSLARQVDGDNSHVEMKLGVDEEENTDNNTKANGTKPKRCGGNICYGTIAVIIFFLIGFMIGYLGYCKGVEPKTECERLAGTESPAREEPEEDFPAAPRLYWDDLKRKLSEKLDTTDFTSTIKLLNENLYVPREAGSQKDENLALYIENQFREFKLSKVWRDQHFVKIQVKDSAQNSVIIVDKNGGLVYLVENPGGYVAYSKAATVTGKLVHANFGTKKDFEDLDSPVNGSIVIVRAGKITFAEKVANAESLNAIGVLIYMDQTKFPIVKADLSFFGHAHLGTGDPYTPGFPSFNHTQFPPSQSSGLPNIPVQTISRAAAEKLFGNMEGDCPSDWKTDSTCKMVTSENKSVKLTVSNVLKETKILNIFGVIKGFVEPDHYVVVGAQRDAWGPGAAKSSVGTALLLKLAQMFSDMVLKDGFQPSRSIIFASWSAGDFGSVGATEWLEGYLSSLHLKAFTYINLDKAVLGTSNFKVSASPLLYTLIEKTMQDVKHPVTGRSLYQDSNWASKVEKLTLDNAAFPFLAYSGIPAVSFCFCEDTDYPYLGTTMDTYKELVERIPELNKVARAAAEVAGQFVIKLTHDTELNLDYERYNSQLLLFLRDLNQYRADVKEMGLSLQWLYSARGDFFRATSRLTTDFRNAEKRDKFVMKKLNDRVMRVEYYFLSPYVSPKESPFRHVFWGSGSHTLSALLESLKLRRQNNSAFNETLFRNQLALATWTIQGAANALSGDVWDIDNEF

[2] = biological target: T2, human TfR overexpressed on CHO cells (human, UniProt P02786 1-760); test: flow cytometry, first of two columns 'Binding to human TfR1 EC50 (M)' (second column: ND); paragraph 156 calls it the capacity to compete for binding on human TfR1, competitor not named
T2 construct: construct is TfR followed by an HA tag and IRES-GFP; also called hTfR; human transferrin receptor

[3] = biological target: T2, human TfR overexpressed on CHO cells; test: flow cytometry, second of two columns 'Binding to human TfR1 EC50 (M)' (first column: ND); paragraph 156 calls it the capacity to compete for binding on human TfR1, competitor not named
[4] = biological target: T1, cynomolgus TfR overexpressed on CHO …; test: flow cytometry, second of two columns 'Binding to cyno TfR1 EC50 (M)' (first column: ND); paragraph 156 calls it the capacity to compete for binding on cynomolgus monkey TfR1, competitor not named
[5] = biological target: T3, recombinant human TfR (2474-TR, R&D Systems), biotinylated (human, UniProt P02786 89-760, biotinylated with EZ-Link NHS-PEG4-Biotinylation Kit); test: SPR (Biacore), biotinylated human TfR captured on an SA chip, VHH injected, 1:1 dissociation fit, pH 7.4
T3 construct: Bought protein; also called immobilized recombinant human TfR; biotinylated human TfR
Description: (§1) E. coli TG1 bacteria were transformed with those plasmids and expressions induced. Crude extracts were prepared and analyzed for binding by flow cytometry on human TfR overexpressing cells. […] Next, off rates of these selected variants were determined on recombinant human TfR by surface plasmon resonance (Biacore, Marlborough, Massachusetts, United States). Biotinylated human TfR was captured on a streptavidin-coated SA sensor chip (Cytiva). Increasing concentrations of nanobodies were sequentially injected in a single cycle at a flow rate of 30 μL/min. The dissociation was monitored for around 20 min. A reference flow was used as a control for non-specific binding and refractive index changes. Several buffer blanks were used for double referencing. Off rates were derived after fitting the experimental data to the 1:1 binding model with the Biacore Evaluation Software.
(§2) Surface Plasmon Resonance (SPR) was used to measure the interaction between VHHs and human or cynomolgus TfR receptor. Human TfR (2474-TR, R&D Systems) and cynomolgus TfR (90253-C07H, Sino Biological) were biotinylated with the EZ-Link NHS-PEG4-Biotinylation Kit (ThermoFischer Scientific) according to the manufacturer instructions. The binding experiments were performed at 25° C. on a Biacore T200 instrument (Cytiva, Uppsala, Sweden) in HBS-EP+ buffer (10 mM HEPES, 150 mM NaCl, 3 mM EDTA and 0.05% v/v Surfactant P20). Biotinylated human TfR and cynomolgus TfR were captured on a SA sensor chip (Cytiva) at a density of around 250 RU. Increasing concentrations of VHHs were sequentially injected in one single cycle at a flow rate of 30 μl/min. The dissociation was monitored for 20 min. […] A reference flow was used as a control for non-specific binding and refractive index changes. Several buffer blanks were used for double referencing. Binding affinities (KD) and kinetic rate constants (kₒₙ, koff) were derived after fitting the experimental data to the 1:1 binding model with the Biacore T200 Evaluation Software 3.1 using the single cycle kinetic procedure.

[6] = biological target: T3, recombinant human TfR (2474-TR, R&D …); test: SPR (Biacore), biotinylated human TfR captured on an SA chip, VHH injected, 1:1 dissociation fit, pH 5.5
Description: as §1, §2

[7] = biological target: T3, recombinant human TfR (2474-TR, R&D …); test: SPR (Biacore), ratio of the off rates on human TfR at the two pH values; the printed number equals kd at pH 5.5 divided by kd at pH 7.4
Description: as §1, §2

[8] = biological target: T2, human TfR overexpressed on CHO cells; test: flow cytometry, column 'Binding to human TfR1 EC50 (M)'; paragraph 156 calls it the capacity to compete for binding on human TfR1, competitor not named
[9] = biological target: T1, cynomolgus TfR overexpressed on CHO …; test: flow cytometry, column 'Binding to cyno TfR1 EC50 (M)'; paragraph 156 calls it the capacity to compete for binding on cynomolgus monkey TfR1, competitor not named

T3 sequence (P02786 89-760 limits assumed): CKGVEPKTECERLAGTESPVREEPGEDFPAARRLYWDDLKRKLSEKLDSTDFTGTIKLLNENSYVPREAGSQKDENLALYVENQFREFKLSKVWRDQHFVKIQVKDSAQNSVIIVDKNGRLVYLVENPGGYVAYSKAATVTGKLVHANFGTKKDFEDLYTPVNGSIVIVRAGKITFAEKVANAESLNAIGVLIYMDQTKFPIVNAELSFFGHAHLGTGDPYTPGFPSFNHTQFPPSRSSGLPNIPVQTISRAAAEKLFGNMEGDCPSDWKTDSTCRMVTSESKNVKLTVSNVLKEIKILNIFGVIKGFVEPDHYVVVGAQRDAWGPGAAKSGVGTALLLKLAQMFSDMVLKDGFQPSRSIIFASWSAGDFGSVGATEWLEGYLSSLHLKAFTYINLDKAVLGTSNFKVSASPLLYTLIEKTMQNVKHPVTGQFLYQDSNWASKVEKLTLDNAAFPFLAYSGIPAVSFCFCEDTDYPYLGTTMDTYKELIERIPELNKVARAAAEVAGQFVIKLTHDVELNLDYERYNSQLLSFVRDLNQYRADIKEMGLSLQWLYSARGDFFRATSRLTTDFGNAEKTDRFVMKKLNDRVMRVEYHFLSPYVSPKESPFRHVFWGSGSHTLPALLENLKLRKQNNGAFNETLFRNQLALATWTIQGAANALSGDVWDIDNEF

EC50 [1]: 180 nM | EC50 [2]: 340 nM
B1: BBB00533_h14 (VHH)
VHH: EVQLVESGGGLVQPGGSLRLSCTASGRTFNYAMGWFRQAPGKNREFVATIDWKDGSSYYADSVKGRFTISRDDAKNTVYLQMNSLRPEDTAVYYCAVGEGDYCSTYTCAAEVEYDYWGQGTLVTVSS

EC50 [3]: 110 nM | EC50 [4]: 14 nM
B2: BBB00533_h10 (VHH)
VHH: B1 VHH with A60L, D73N, E99D
notes: The sheet prints R72K and D82N (IMGT) against BBB00533_h01

EC50 [1]: 240 nM | EC50 [2]: 560 nM
B3: BBB00533_h13 (VHH)
VHH: B1 VHH with E99Q

EC50 [1]: 120 nM | EC50 [2]: 290 nM
B4: BBB00533_h17 (VHH)
VHH: B1 VHH with D54Q

koff [5]: 0.00918 s⁻¹ | koff [6]: 0.0171 s⁻¹ | off-rate ratio kd pH5.5/kd pH7.4 [7]: 1.86
B5: BBB00738 (VHH)
VHH: EVQLVESGGGLVQAGGSLRLSCAASGHIFSINAMGWYRQAPGKQRELVAVITSGGSTIYADSVKGRFTISRDNAENTVYLQMNSLRPEDTAVYYCNAHVGLKVPTIQELSLGFGSWGQGTLVTVSS
notes: Histidine mutant

EC50 [8]: 120 nM | EC50 [9]: 26 nM
B6: BBB00515_h1 (VHH)
VHH: B5 VHH with A14P, H27S

koff [5]: 0.00908 s⁻¹ | koff [6]: 0.0657 s⁻¹ | off-rate ratio kd pH5.5/kd pH7.4 [7]: 7.24
B7: BBB00758 (VHH)
VHH: B5 VHH with H27S, L101H
notes: also called histidine mutant of BBB00533

koff [5]: 0.00507 s⁻¹ | koff [6]: 0.0113 s⁻¹ | off-rate ratio kd pH5.5/kd pH7.4 [7]: 2.23
B8: BBB00767 (VHH)
VHH: B5 VHH with H27S, S110H
notes: Histidine mutant

koff [5]: 0.0102 s⁻¹ | koff [6]: 0.0206 s⁻¹ | off-rate ratio kd pH5.5/kd pH7.4 [7]: 2.02
B9: BBB00764 (VHH)
VHH: B5 VHH with H27S, Q107H
notes: Histidine mutant

koff [5]: 0.00727 s⁻¹ | koff [6]: 0.0245 s⁻¹ | off-rate ratio kd pH5.5/kd pH7.4 [7]: 3.37
B10: BBB00770 (VHH)
VHH: B5 VHH with H27S, F113H
notes: as for B7

koff [5]: 0.00737 s⁻¹ | koff [6]: 0.0141 s⁻¹ | off-rate ratio kd pH5.5/kd pH7.4 [7]: 1.92
B11: BBB00772 (VHH)
VHH: B5 VHH with H27S, S115H
notes: Histidine mutant

koff [5]: 0.011 s⁻¹ | koff [6]: 0.0183 s⁻¹ | off-rate ratio kd pH5.5/kd pH7.4 [7]: 1.67
B12: BBB00771 (VHH)
VHH: B5 VHH with H27S, G114H
notes: Histidine mutant

EC50 [8]: 60 nM | EC50 [9]: 22 nM
B13: BBB00515_h04 (VHH)
VHH: B5 VHH with E1D, A14P, H27S, E75K
notes: The sheet prints E1D and E84K (IMGT) against BBB00515_h01; also called BBB00515_h4

EC50 [8]: 67 nM | EC50 [9]: 23 nM
B14: BBB00515_h02 (VHH)
VHH: B5 VHH with A14P, H27S, E75K
notes: The sheet prints E84K (IMGT) against BBB00515_h01; also called BBB00515_h2

koff [5]: 0.00933 s⁻¹ | koff [6]: 0.022 s⁻¹ | off-rate ratio kd pH5.5/kd pH7.4 [7]: 2.36
B15: BBB00763 (VHH)
VHH: B5 VHH with H27S, I106H
notes: as for B7

koff [5]: 0.00761 s⁻¹ | koff [6]: 0.0223 s⁻¹ | off-rate ratio kd pH5.5/kd pH7.4 [7]: 2.93
B16: BBB00739 (VHH)
VHH: B5 VHH with H27S, I28H
notes: as for B7

koff [5]: 0.00773 s⁻¹ | koff [6]: 0.0161 s⁻¹ | off-rate ratio kd pH5.5/kd pH7.4 [7]: 2.08
B17: BBB00745 (VHH)
VHH: B5 VHH with H27S, M34H
notes: Histidine mutant

koff [5]: 0.00735 s⁻¹ | koff [6]: 0.019 s⁻¹ | off-rate ratio kd pH5.5/kd pH7.4 [7]: 2.58
B18: BBB00756 (VHH)
VHH: B5 VHH with H27S, V99H
notes: as for B7

koff [5]: 0.00551 s⁻¹ | koff [6]: 0.0151 s⁻¹ | off-rate ratio kd pH5.5/kd pH7.4 [7]: 2.74
B19: BBB00741 (VHH)
VHH: B5 VHH with H27S, S30H
notes: as for B7

koff [5]: 0.00954 s⁻¹ | koff [6]: 0.0221 s⁻¹ | off-rate ratio kd pH5.5/kd pH7.4 [7]: 2.32
B20: BBB00740 (VHH)
VHH: B5 VHH with H27S, F29H
notes: Histidine mutant
